Columns and labels:
[1] = target: His6-tagged full-length TF (E. coli) (UniProt P0A850); assay: SEC-MALS; preliminary data on His6-tagged full-length TF; elution concentration 10 µM; conservative estimate of KD
[2] = target: RBD–SBD (1–148/247–432) (E. coli) (UniProt P0A850); assay: SEC-MALS; sample buffer (20 mM K-phosphate pH 6.5, 100 mM KCl, 0.5 mM EDTA); 6 °C for the individual domains; concentration series fitted to a fast monomer–dimer equilibrium; dimer to monomers
[3] = target: RBD–SBD (1–148/247–432) (E. coli) (UniProt P0A850); assay: SEC-MALS; as a2 but 500 mM KCl; dimer to monomers
[4] = target: RBD–SBD (1–148/247–432) (E. coli) (UniProt P0A850); assay: SEC-MALS; as a2 but 250 mM KCl; dimer to monomers
[5] = target: RBD–SBD (1–148/247–432) (E. coli) (UniProt P0A850); assay: AUC; sedimentation equilibrium, 6 °C, 100 mM KCl (sample buffer: 20 mM K-phosphate pH 6.5, 100 mM KCl, 0.5 mM EDTA); 12 μM TF, 48 and 135 μM RBD–SBD; global fit to a monomer–dimer model; dimer to monomers

Kd [1] [µM]	stoichiometry N [1]	Kd [2] [µM]	stoichiometry N [2]	Kd [3] [µM]	Kd [4] [µM]	Kd [5] [µM]	Substance
< 0.1	2						His6-tagged full-length TF (from UniProt P0A850 1-432) (natural protein)
		72	2	> 500	> 500	54	RBD–SBD (1–148/247–432) (from UniProt P0A850 1-148; P0A850 247-432) (domain or fragment)

Source: PMC5722895
